Assay results taken from patent publication US20080318297A1, “Inhibition of Infiltration, and Cell Killing Agent” (priority 2004, published 2008).

How the values were obtained:
sialyl Lewis x = experiment: Sialyl Lewis x expression in NALL1 cells by flow cytometer (CSLEX1 antibody); format: cell-based, human
Excerpt: Fluorescence intensity and distribution of cell count of a sialyl Lewis x sugar chain antigen which is a major selectin ligand sugar chain were confirmed in flow cytometer by using a CSLEX antibody (antibody specifically recognizing the sialyl Lewis x structure; product of Becton, Dickinson and Company) to which a tandem dye APC-Cy7 was bound in accordance with a method described in J. Biol. Chem., 273, 41, 26779-26789 (1998). Rightward shifting in the histogram means an increase in the fluorescence intensity, i.e. an amount of expression of sialyl Lewis x.
These siRNAs were expressed in cells to confirm the effects. For introduction of siRNA into cells, a lentivirus system (product of Invitrogen Corporation) which is able to gene introduction into blood cells at high efficiency and an expression vector for lentivirus pLL3.7 (Nat. Genet., 33, 401-406 (2003)) were used. In the pLL3.7 vector, it is possible to introduce a sense/antisense siRNA sequence including a hair-pin structure downstream of a U6 promoter. […] Therefore, expression of the CD43 antigen and sialyl Lewis x and the selectin binding ability of the cells in which the GFP expression was observed, i.e. of the cells in which siRNA was expressed, were analyzed by using the antibody MEM59 (product of Monosan) for CD43, sialyl Lewis x antibody CSLEX1, and human chimera-Fc-Ig-E- or P-selectin with the use of a flow cytometer. […]

E-selectin = E-selectin binding ability of NALL1 cells by flow cytometer (human chimera-Fc-Ig-E-selectin); format: cell-based
Excerpt: (§1) Likewise, a binding ability to E-selectin and P-selectin was confirmed in flow cytometer through fluorescence intensity and distribution of cell count measured by using a recombinant protein (human chimera-Fc-Ig-E-selectin or human chimera-Fc-Ig-P-selectin; product of R & D Systems) in accordance with the method descried in Blood, 104, 3091-3096 (2004). […] Rightward shifting in the histogram means an increase in the fluorescence intensity, i.e. binding ability to selectin.
(§2) These siRNAs were expressed in cells to confirm the effects. […] Therefore, expression of the CD43 antigen and sialyl Lewis x and the selectin binding ability of the cells in which the GFP expression was observed, i.e. of the cells in which siRNA was expressed, were analyzed by using the antibody MEM59 (product of Monosan) for CD43, sialyl Lewis x antibody CSLEX1, and human chimera-Fc-Ig-E- or P-selectin with the use of a flow cytometer. […]
(§3) Benzyl-α-N-acetylgalactosamine (Bz-α-GalNAc; product of Sigma-Aldrich Japan, K.K.) which is one of sugar chain synthesis inhibiting agents was added to a culture supernatant of NALL1 cells to detect its binding ability to selectin. […] After adding 4 mM of benzyl-α-N-acetylgalactosamine to the culture supernatant of NALL1 cells, expressions of the CD43 antigen and sialyl Lewis x and binding ability to E- and P-selectin were detected by a flow cytometer after 3 day-culture. […]

CD43 antigen = CD43 antigen expression in NALL1 cells by flow cytometer (MEM59 antibody); format: cell-based, human; settings: for CD43 expression: siRNA introduced by lentivirus pLL3.7 vector, GFP positive fraction, vs vacant vector
Excerpt: These siRNAs were expressed in cells to confirm the effects. For introduction of siRNA into cells, a lentivirus system (product of Invitrogen Corporation) which is able to gene introduction into blood cells at high efficiency and an expression vector for lentivirus pLL3.7 (Nat. Genet., 33, 401-406 (2003)) were used. In the pLL3.7 vector, it is possible to introduce a sense/antisense siRNA sequence including a hair-pin structure downstream of a U6 promoter. The pLL3.7 vector expresses Green Fluorescent Protein (GFP) by a CMV promoter at the same time. Accordingly, oligonucleotide including the sense chain, antisense chain, and hair-pin structure of the designed siRNA sequence (CD43-#1 to #5, CD43-$1 to $5; alphabet f at the end of the name indicates the sense chain, and r indicates the antisense chain) was chemically synthesized and then cloned to pLL3.7 vector, followed by introduction into 293 cells together with a vector for virus particle production. After that, siRNA expression lentivirus vector was collected from a supernatant of the culture medium (FIG. 8). Virus infection was caused by co-culture of the virus particles and NALL1 cells to introduce the siRNA into the cells and the siRNA is expressed. GFP was simultaneously expressed in the cells into which the siRNA was introduced by the pLL3.7 vector. Therefore, expression of the CD43 antigen and sialyl Lewis x and the selectin binding ability of the cells in which the GFP expression was observed, i.e. of the cells in which siRNA was expressed, were analyzed by using the antibody MEM59 (product of Monosan) for CD43, sialyl Lewis x antibody CSLEX1, and human chimera-Fc-Ig-E- or P-selectin with the use of a flow cytometer. As a result, in introduction of vacant vector (pLL3.7), a high rate of the CD43 expression was observed irrelevant from GFP positive or negative.
Benzyl-α-N-acetylgalactosamine (Bz-α-GalNAc; product of Sigma-Aldrich Japan, K.K.) which is one of sugar chain synthesis inhibiting agents was added to a culture supernatant of NALL1 cells to detect its binding ability to selectin. Benzyl-α-N-acetylgalactosamine is subject to sugar chain modification like N-acetylgalactosamine added to serine and threonine of a protein when taken into a cell. Therefore, since the original sugar chain modification to a glycoprotein is suppressed by an addition of an excessive amount of benzyl-α-N-acetylgalactosamine, benzyl-α-N-acetylgalactosamine is used as an O-linked sugar chain synthesis inhibiting agent. After adding 4 mM of benzyl-α-N-acetylgalactosamine to the culture supernatant of NALL1 cells, expressions of the CD43 antigen and sialyl Lewis x and binding ability to E- and P-selectin were detected by a flow cytometer after 3 day-culture. […]

P-selectin = P-selectin binding ability of NALL1 cells by flow cytometer (human chimera-Fc-Ig-P-selectin); format: cell-based
Excerpt: as §1, §2, §3

[1] = siRNA introduced by lentivirus pLL3.7 vector (FIG. 10)

CC(=O)N[C@H]1[C@@H](OCc2ccccc2)O[C@H](CO)[C@H](O)[C@@H]1O [benzyl-α-N-acetylgalactosamine, Benzyl-α-N-acetylgalactosamine, reference compound]
sialyl Lewis x expression (sialyl Lewis x; 4 mM, 3 day-culture): remarkably reduced | selectin binding ability (E-selectin) (E-selectin; 4 mM, 3 day-culture): almost lost | expression of CD43 antigen (CD43 antigen; 4 mM, 3 day-culture): no change | selectin binding ability (P-selectin) (P-selectin; 4 mM, 3 day-culture): almost lost

B1: siCD43-#2-pLL3.7: siRNA for CD43 antigen in pLL3.7 lentivirus vector; CD43 sequence ggccgacagcactggggac (nucleic acid)
sense: TGGCCGACAGCACTGGGGACTTCAAGAGAGTCCCCAGTGCTGTCGGCCTTTTTTC
antisense: TCGAGAAAAAAGGCCGACAGCACTGGGGACTCTCTTGAAGTCCCCAGTGCTGTCGGCCA
modifications: shRNA oligos cloned in pLL3.7 lentivector
sialyl Lewis x expression (sialyl Lewis x; [1]): remarkable reductions | selectin binding ability (E-selectin) (E-selectin; [1]): remarkable reductions | CD43 expression (CD43 antigen): significant reduction | selectin binding ability (P-selectin) (P-selectin; [1]): remarkable reductions

B2: siCD43-#5-pLL3.7: siRNA for CD43 antigen in pLL3.7 lentivirus vector; CD43 sequence gcgtaacggggtggtggac (nucleic acid)
sense: TGCGTAACGGGGTGGTGGACTTCAAGAGAGTCCACCACCCCGTTACGCTTTTTTC
antisense: TCGAGAAAAAAGCGTAACGGGGTGGTGGACTCTCTTGAAGTCCACCACCCCGTTACGCA
modifications: shRNA oligos cloned in pLL3.7 lentivector
CD43 expression (CD43 antigen): significant reduction

B3: siCD43-#1-pLL3.7: siRNA for CD43 antigen in pLL3.7 lentivirus vector; CD43 sequence gtgaccctaaggccgacag (nucleic acid)
sense: TGTGACCCTAAGGCCGACAGTTCAAGAGACTGTCGGCCTTAGGGTCACTTTTTTC
antisense: TCGAGAAAAAAGTGACCCTAAGGCCGACAGTCTCTTGAACTGTCGGCCTTAGGGTCACA
modifications: shRNA oligos cloned in pLL3.7 lentivector
CD43 expression (CD43 antigen): significant reduction
